In paper PMC3257521 (Biochemistry, 2011):

Experiments:
[1] = Literature hydrolysis in basic solution; format: physicochemical; conditions: 25 °C in 0.1 N NaOH
[2] = 25 °C in 0.1 N NaOH; cited from earlier work
[3] = molecular target: Pnc1 (Saccharomyces cerevisiae, UniProt P53184); format: biochemical, S. cerevisiae
[4] = molecular target: Pnc1 WT or mutant (Saccharomyces cerevisiae, UniProt P53184, C167A); assay: Steady-state kinetic parameters of Pnc1 mutants, enzyme-coupled assay; format: biochemical, S. cerevisiae; conditions: substrate nicotinamide
[5] = system: Pnc1 WT or mutant; assay: as above; format: biochemical, S. cerevisiae; conditions: substrate nicotinamide; for kcat: pH 7.5
[6] = system: Pnc1 WT or mutant; assay: 13C kinetic isotope effect of Pnc1 mutants; format: biochemical, S. cerevisiae; conditions: substrate nicotinamide, pH 7.5
[7] = molecular target: Pnc1 WT or mutant (Saccharomyces cerevisiae, UniProt P53184, K122R); assay: 13C kinetic isotope effect of Pnc1 mutants; format: biochemical, S. cerevisiae; conditions: substrate nicotinamide
[8] = system: Pnc1 WT or mutant; assay: 15N kinetic isotope effect of Pnc1 mutants; format: biochemical, S. cerevisiae; conditions: substrate nicotinamide, pH 7.5

Sequence of Pnc1 (P53184 whole entry): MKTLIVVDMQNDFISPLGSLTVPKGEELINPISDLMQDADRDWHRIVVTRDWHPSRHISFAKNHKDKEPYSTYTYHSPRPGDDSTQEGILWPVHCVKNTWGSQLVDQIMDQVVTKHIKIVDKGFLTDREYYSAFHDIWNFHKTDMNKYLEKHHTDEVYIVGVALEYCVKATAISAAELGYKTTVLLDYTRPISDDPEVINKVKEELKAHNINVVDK

Row | Molecule | fold slower hydrolysis rate compared to nicotinamide [1] [fold] | pseudo-first-order rate of hydrolysis in basic solutions [2] [h⁻¹] | fold decreased kcat/Km compared to nicotinamide [3] [fold] | fold lower kcat compared to nicotinamide [3] [fold] | nicotinamidase activity [4] | kcat [5] [s⁻¹] | 13C KIE [6] | 13C effect higher than wild-type enzyme [7] | fold lower kcat compared to Pnc1 WT [5] [fold] | 15N KIE [8]
1 | NC(=O)c1ccccc1 [benzamide] | 7 | 0.00408 | 200 | 78 | – | – | – | – | – | –
2 | C167A (protein, UniProt P53184 1-216, looked up, variant C167A) Nicotinamidase: MKTLIVVDMQNDFISPLGSLTVPKGEELINPISDLMQDADRDWHRIVVTRDWHPSRHISFAKNHKDKEPYSTYTYHSPRPGDDSTQEGILWPVHCVKNTWGSQLVDQIMDQVVTKHIKIVDKGFLTDREYYSAFHDIWNFHKTDMNKYLEKHHTDEVYIVGVALEYAVKATAISAAELGYKTTVLLDYTRPISDDPEVINKVKEELKAHNINVVDK | – | – | – | – | lost all detectable nicotinamidase activity | < 0.0005 | – | – | – | –
3 | K122R (protein, UniProt P53184 1-216, looked up, variant K122R) Nicotinamidase: MKTLIVVDMQNDFISPLGSLTVPKGEELINPISDLMQDADRDWHRIVVTRDWHPSRHISFAKNHKDKEPYSTYTYHSPRPGDDSTQEGILWPVHCVKNTWGSQLVDQIMDQVVTKHIKIVDRGFLTDREYYSAFHDIWNFHKTDMNKYLEKHHTDEVYIVGVALEYCVKATAISAAELGYKTTVLLDYTRPISDDPEVINKVKEELKAHNINVVDK | – | – | – | – | – | 0.0009 ± 0.0002 | 1.0172 ± 0.0001 | ~ 0.4% | 767 | 1.0127 ± 0.0003
